From the Human Domainome abundance scans (Beltran et al. 2025)
± gives the uncertainty stated by the source.

B1: Probable E3 ubiquitin-protein ligase MID2, residues 191 to 235; numbered along this chain, Q9UJV3 (parent)
chain: RGITCLDHENEKVNMYCVSDDQLICALCKLVGRHRDHQVASLNDR

Variants of: B1
Assay: abundance fitness (aPCA) (normalised: wild type 0, dead -1); higher = more abundant; growth selection in yeast, the domain comes from the species named
Settings: Homo sapiens

Row | Variant | abundance fitness
1 | C25N | -1.14 ± 0.16
2 | C25Y | -0.841 ± 0.26
3 | H37S | -0.482 ± 0.091
4 | H37L | -0.584 ± 0.11
5 | H37G | -0.283 ± 0.056
6 | H37T | -0.295 ± 0.065
7 | H37I | -1.04 ± 0.31
8 | H37M | -0.684 ± 0.1
9 | H37K | 0.271 ± 0.068
10 | H37A | -0.313 ± 0.065
11 | H37Y | -0.519 ± 0.12
12 | H37R | -0.492 ± 0.061
13 | H37Q | -0.365 ± 0.093
14 | H37D | -0.274 ± 0.09
15 | I24C | -0.436 ± 0.14
16 | I24A | -0.104 ± 0.11
17 | I24Q | -0.006 ± 0.22
18 | I24M | -0.104 ± 0.12
19 | I24R | -0.373 ± 0.12
20 | I24S | -0.179 ± 0.12
21 | I24H | -0.197 ± 0.22
22 | I24E | -0.141 ± 0.15
23 | I24K | -0.105 ± 0.1
24 | I24D | -0.121 ± 0.11

Row | Variant | abundance fitness
25 | I24T | -0.122 ± 0.074
26 | I24G | -0.269 ± 0.084
27 | I24V | 0.058 ± 0.11
28 | I24P | 0.196 ± 0.21
29 | V18A | 0.054 ± 0.044
30 | V18N | -0.125 ± 0.083
31 | V18F | -0.112 ± 0.11
32 | V18W | -0.19 ± 0.056
33 | V18T | 0.2 ± 0.061
34 | V18C | 0.036 ± 0.082
35 | V18P | -0.025 ± 0.082
36 | V18R | 0.056 ± 0.048
37 | V18G | 0.011 ± 0.043
38 | V18S | 0.027 ± 0.056
39 | V18D | 0.065 ± 0.065
40 | V18I | -0.165 ± 0.089
41 | V18L | -0.024 ± 0.058
42 | V18K | 0.079 ± 0.064
43 | Q38D | 0.117 ± 0.089
44 | Q38G | -0.191 ± 0.052
45 | Q38C | -0.152 ± 0.1
46 | Q38F | -0.69 ± 0.18
47 | Q38E | 0.105 ± 0.054
48 | Q38A | -0.113 ± 0.073

Row | Variant | abundance fitness
49 | H34G | -0.383 ± 0.063
50 | H34K | -0.402 ± 0.11
51 | H34E | -0.368 ± 0.12
52 | H34A | -0.48 ± 0.062
53 | H34R | -0.459 ± 0.064
54 | H34S | -0.387 ± 0.1
55 | H34P | -0.66 ± 0.15
56 | H34M | -0.677 ± 0.096
57 | H34T | -0.473 ± 0.1
58 | H34Y | -0.634 ± 0.29
59 | H34F | -0.184 ± 0.16
60 | H34V | -0.558 ± 0.081
61 | H34D | -0.66 ± 0.13
62 | H34Q | -0.319 ± 0.087
63 | H34W | -0.997 ± 0.12
64 | H34N | -0.474 ± 0.12
65 | H34L | -1.13 ± 0.19
66 | K29N | 0.153 ± 0.081
67 | K29E | -0.039 ± 0.12
68 | K29S | 0.059 ± 0.06
69 | K29G | 0.097 ± 0.052
70 | K29V | -0.149 ± 0.089
71 | K29P | -0.054 ± 0.082
72 | K29H | -0.032 ± 0.39

Row | Variant | abundance fitness
73 | K29M | -0.029 ± 0.17
74 | K29L | -0.286 ± 0.092
75 | K29D | -0.211 ± 0.13
76 | K29C | -0.144 ± 0.13
77 | K29I | -0.037 ± 0.096
78 | K29Y | -0.079 ± 0.14
79 | K29A | 0.063 ± 0.057
80 | K29R | 0.07 ± 0.06
81 | K29Q | -0.016 ± 0.063
82 | K29W | 0.018 ± 0.061
83 | K29F | -0.132 ± 0.2
84 | D36L | -0.125 ± 0.06
85 | D36R | -0.255 ± 0.061
86 | D36A | -0.293 ± 0.085
87 | D36V | -0.3 ± 0.07
88 | D36E | 0.036 ± 0.066
89 | D36P | -0.311 ± 0.074
90 | D36G | -0.098 ± 0.054
91 | D36W | -0.311 ± 0.079
92 | D36I | -0.34 ± 0.4
93 | D36T | -0.176 ± 0.13
94 | D36H | -0.146 ± 0.28
95 | D36C | -0.278 ± 0.067
96 | D36Q | -0.235 ± 0.088

Row | Variant | abundance fitness
97 | A26V | -0.174 ± 0.076
98 | A26Q | -0.017 ± 0.071
99 | A26H | -0.169 ± 0.36
100 | A26T | -0.068 ± 0.075
101 | A26Y | -0.092 ± 0.16
102 | A26K | -0.051 ± 0.094
103 | A26G | 0.103 ± 0.053
104 | A26F | -0.277 ± 0.26
105 | A26E | 0.031 ± 0.081
106 | A26M | -0.359 ± 0.12
107 | A26S | -0.006 ± 0.06
108 | A26P | -0.018 ± 0.066
109 | A26L | -0.296 ± 0.057
110 | A26I | -0.621 ± 0.26
111 | A26R | 0.006 ± 0.053
112 | A26D | 0.13 ± 0.082
113 | C17W | -0.792 ± 0.1
114 | C17N | -0.212 ± 0.1
115 | C17E | -0.163 ± 0.12
116 | C17T | -0.269 ± 0.072
117 | C17S | -0.157 ± 0.073
118 | C17G | -0.129 ± 0.058
119 | C17L | -0.775 ± 0.13
120 | C17V | -0.486 ± 0.087

Row | Variant | abundance fitness
121 | C17K | -0.01 ± 0.35
122 | C17Q | -0.369 ± 0.15
123 | C17R | -0.304 ± 0.068
124 | C17M | -0.517 ± 0.1
125 | C17P | -0.319 ± 0.14
126 | C17Y | -0.635 ± 0.3
127 | Q22W | -0.515 ± 0.13
128 | Q22K | 0.05 ± 0.068
129 | Q22I | -0.259 ± 0.19
130 | Q22E | -0.113 ± 0.085
131 | Q22S | 0.049 ± 0.056
132 | Q22T | -0.062 ± 0.12
133 | Q22Y | -0.264 ± 0.35
134 | Q22M | 0.054 ± 0.068
135 | Q22D | -0.19 ± 0.2
136 | Q22V | -0.012 ± 0.062
137 | Q22R | 0.1 ± 0.054
138 | Q22P | -0.381 ± 0.1
139 | Q22L | -0.177 ± 0.063
140 | D20V | -1.03 ± 0.094
141 | D20T | -0.706 ± 0.071
142 | D20K | -0.357 ± 0.078
143 | D20W | -0.809 ± 0.067
144 | D20A | -0.77 ± 0.071

Row | Variant | abundance fitness
145 | D20E | -0.096 ± 0.063
146 | D20G | -0.589 ± 0.049
147 | D20N | -0.456 ± 0.44
148 | D20Y | -1.43 ± 0.25
149 | D20P | -0.625 ± 0.085
150 | D20C | -0.178 ± 0.084
151 | D20M | -1.19 ± 0.15
152 | D20L | -1.08 ± 0.11
153 | D20H | -0.459 ± 0.098
154 | L23V | 0.006 ± 0.064
155 | L23Q | 0.099 ± 0.089
156 | L23H | -0.074 ± 0.16
157 | L23R | 0.023 ± 0.051
158 | L23N | 0.352 ± 0.17
159 | L23C | 0.049 ± 0.22
160 | L23E | 0.137 ± 0.077
161 | L23K | 0.213 ± 0.081
162 | L23P | 0.144 ± 0.076
163 | L23W | -0.038 ± 0.072
164 | L23D | 0.064 ± 0.2
165 | L23M | 0.199 ± 0.069
166 | L23S | -0.009 ± 0.07
167 | L23T | -0.046 ± 0.14
